In PMC5379939:

Experiments:
EYFP-ELKS1(771–976) = assay: FRET or BRET
GST-ELKS1(771–976) = assay: pull-down; settings: scale: GST-ELKS1(771–976) per MBP-bMunc13-2(1–305)

| fold of the FRET value of cells coexpressing soluble ECFP and EYFP (EYFP-ELKS1(771–976)) [fold] | normalized FRET value (EYFP-ELKS1(771–976)) | stoichiometry N (GST-ELKS1(771–976)) | Substance |
| --- | --- | --- | --- |
| 7 | 0.07 | – | ECFP-bMunc13-2(70–204) (domain or fragment) |
| – | – | 1.69 | MBP-bMunc13-2(1–305) (domain or fragment) |
